B1: PR70 (105–575) (domain or fragment, human, UniProt Q9Y5P8 105-575, looked up)
chain: GTRVVQTRKEEPLPPATSQSIPTFYFPRGRPQDSVNVDAVISKIESTFARFPHERATMDDMGLVAKACGCPLYWKGPLFYGAGGERTGSVSVHKFVAMWRKILQNCHDDAAKFVHLLMSPGCNYLVQEDFVPFLQDVVNTHPGLSFLKEASEFHSRYITTVIQRIFYAVNRSWSGRITCAELRRSSFLQNVALLEEEADINQLTEFFSYEHFYVIYCKFWELDTDHDLLIDADDLARHNDHALSTKMIDRIFSGAVTRGRKVQKEGKISYADFVWFLISEEDKKTPTSIEYWFRCMDLDGDGALSMFELEYFYEEQCRRLDSMAIEALPFQDCLCQMLDLVKPRTEGKITLQDLKRCKLANVFFDTFFNIEKYLDHEQKEQISLLRDGDSGGPELSDWEKYAAEEYDILVAEETAGEPWEDGFEAELSPVEQKLSALRSPLAQRPFFEAPSPLGAVDLYEYACGDEDLEPL
notes: PR70 (B''β), regulatory B'' subunit of PP2A, human, product of PPP2R3B; source: E. coli BL21(DE3), purified (IMAC, TEV cleavage, gel filtration); not shown: His tag, N-terminal, cleaved
B2: PR70 (25–575) (domain or fragment, human, UniProt Q9Y5P8 25-575, looked up)
chain: EASTQRMLQDCLRRIKAPGRDQPTPGDGEQPGAWPTAPLAAPRPSGLEPPGTPGPGPALPLGAASSPRNAPHVRGTRRSAGTRVVQTRKEEPLPPATSQSIPTFYFPRGRPQDSVNVDAVISKIESTFARFPHERATMDDMGLVAKACGCPLYWKGPLFYGAGGERTGSVSVHKFVAMWRKILQNCHDDAAKFVHLLMSPGCNYLVQEDFVPFLQDVVNTHPGLSFLKEASEFHSRYITTVIQRIFYAVNRSWSGRITCAELRRSSFLQNVALLEEEADINQLTEFFSYEHFYVIYCKFWELDTDHDLLIDADDLARHNDHALSTKMIDRIFSGAVTRGRKVQKEGKISYADFVWFLISEEDKKTPTSIEYWFRCMDLDGDGALSMFELEYFYEEQCRRLDSMAIEALPFQDCLCQMLDLVKPRTEGKITLQDLKRCKLANVFFDTFFNIEKYLDHEQKEQISLLRDGDSGGPELSDWEKYAAEEYDILVAEETAGEPWEDGFEAELSPVEQKLSALRSPLAQRPFFEAPSPLGAVDLYEYACGDEDLEPL
notes: PR70 (B''β), regulatory B'' subunit of PP2A, human, product of PPP2R3B; also called B''/PR70; source: E. coli BL21(DE3), purified (IMAC, TEV cleavage, gel filtration); not shown: His tag, N-terminal, cleaved

Tests used:
Assay in all cases: ITC; B''-constructs at 20–40 µM in the cell titrated with 200–300 µM Aα or Aβ constructs; 15°C; 20 mM Tris pH 7.5, 200 mM NaCl, 2 mM CaCl2; 1:1 binding model
[1] = molecular target: B2
[2] = molecular target: B1
[3] = molecular target: T1, A α (HEAT1–15) (UniProt P30153 1-589); conditions: both partners purified
T1 construct: PP2A scaffolding subunit A, α isoform, product of PPP2R1A; HEAT repeats 1–15; calculated molecular weight 65.3 kD; also called full length A-subunit; scaffolding A subunit; source: E. coli BL21(DE3), purified (IMAC, TEV cleavage, gel filtration); not shown: His tag, N-terminal, cleaved
T1 sequence (P30153 whole entry, canonical isoform): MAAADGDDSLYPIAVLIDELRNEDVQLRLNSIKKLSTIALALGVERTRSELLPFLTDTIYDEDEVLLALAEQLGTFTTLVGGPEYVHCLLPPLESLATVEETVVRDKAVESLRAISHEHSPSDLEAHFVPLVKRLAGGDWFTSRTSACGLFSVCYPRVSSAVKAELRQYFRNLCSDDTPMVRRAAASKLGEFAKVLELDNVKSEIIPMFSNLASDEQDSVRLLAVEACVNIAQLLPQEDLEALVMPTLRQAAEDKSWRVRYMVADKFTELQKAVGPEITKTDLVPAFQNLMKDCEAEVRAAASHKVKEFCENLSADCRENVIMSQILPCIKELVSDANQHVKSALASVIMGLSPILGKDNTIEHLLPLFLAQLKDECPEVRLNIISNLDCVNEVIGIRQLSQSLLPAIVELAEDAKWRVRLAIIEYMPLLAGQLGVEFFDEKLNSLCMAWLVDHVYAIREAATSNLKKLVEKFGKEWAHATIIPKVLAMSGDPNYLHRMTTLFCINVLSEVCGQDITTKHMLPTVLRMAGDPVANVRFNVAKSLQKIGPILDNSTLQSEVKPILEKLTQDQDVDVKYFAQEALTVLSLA

Row | Kd [3] | Molecule | also measured
1 | – | A β (HEAT1–15) (from UniProt P30154 1-601) (natural protein) | Kd [1]: 702 nM; dH [1]: -21.5 kcal/mol; stoichiometry N [1]: 1.01; Kd [2]: 411 nM; dH [2]: -17.1 kcal/mol; stoichiometry N [2]: 0.86
2 | 45 ± 8 nM | B1 | –
3 | > 100000 nM | PR70 (130–555) (domain or fragment, human, UniProt Q9Y5P8 130-555, looked up, PR70 (B''β), regulatory B'' subunit of PP2A, human, product of PPP2R3B; residues 130–555; source: E. coli BL21(DE3), purified (IMAC, TEV cleavage, gel filtration); not shown: His tag, N-terminal, cleaved) FPRGRPQDSVNVDAVISKIESTFARFPHERATMDDMGLVAKACGCPLYWKGPLFYGAGGERTGSVSVHKFVAMWRKILQNCHDDAAKFVHLLMSPGCNYLVQEDFVPFLQDVVNTHPGLSFLKEASEFHSRYITTVIQRIFYAVNRSWSGRITCAELRRSSFLQNVALLEEEADINQLTEFFSYEHFYVIYCKFWELDTDHDLLIDADDLARHNDHALSTKMIDRIFSGAVTRGRKVQKEGKISYADFVWFLISEEDKKTPTSIEYWFRCMDLDGDGALSMFELEYFYEEQCRRLDSMAIEALPFQDCLCQMLDLVKPRTEGKITLQDLKRCKLANVFFDTFFNIEKYLDHEQKEQISLLRDGDSGGPELSDWEKYAAEEYDILVAEETAGEPWEDGFEAELSPVEQKLSALRSPLAQRPFFEAPS | –
4 | 112 ± 6 nM | B2 | –
5 | > 100000 nM | PR70 core fragment (residues 130–483) (domain or fragment, human, UniProt Q9Y5P8 130-483, looked up, PR70 (B''β), regulatory B'' subunit of PP2A, human, product of PPP2R3B; The crystal (PDB 4MEW) was of the selenomethionine-labelled protein alone; the model holds residues 134–481; also called PR70 core domain; source: E. coli BL21(DE3), purified (IMAC, TEV cleavage, gel filtration); not shown: His tag, N-terminal, cleaved) FPRGRPQDSVNVDAVISKIESTFARFPHERATMDDMGLVAKACGCPLYWKGPLFYGAGGERTGSVSVHKFVAMWRKILQNCHDDAAKFVHLLMSPGCNYLVQEDFVPFLQDVVNTHPGLSFLKEASEFHSRYITTVIQRIFYAVNRSWSGRITCAELRRSSFLQNVALLEEEADINQLTEFFSYEHFYVIYCKFWELDTDHDLLIDADDLARHNDHALSTKMIDRIFSGAVTRGRKVQKEGKISYADFVWFLISEEDKKTPTSIEYWFRCMDLDGDGALSMFELEYFYEEQCRRLDSMAIEALPFQDCLCQMLDLVKPRTEGKITLQDLKRCKLANVFFDTFFNIEKYLDHEQK | –
6 | 2920 ± 300 nM | PR72 (24–529) (domain or fragment, UniProt Q06190-2 24-529, looked up, PR72 (B''α2), regulatory B'' subunit of PP2A, product of PPP2R3A; residues 24–529; the end at 529 fits the PR72 isoform of 529 residues, not PR130; also called PR72 subunit (residue 24–529); B''α2; source: E. coli BL21(DE3), purified (IMAC, TEV cleavage, gel filtration); not shown: His tag, N-terminal, cleaved) GCDFVLPSRFKKRLKSFQQTQIQNKPEKKPGTPLPPPATSPSSPRPLSPVPHVNNVVNAPLSINIPRFYFPEGLPDTCSNHEQTLSRIETAFMDIEEQKADIYEMGKIAKVCGCPLYWKAPMFRAAGGEKTGFVTAQSFIAMWRKLLNNHHDDASKFICLLAKPNCSSLEQEDFIPLLQDVVDTHPGLTFLKDAPEFHSRYITTVIQRIFYTVNRSWSGKITSTEIRKSNFLQTLALLEEEEDINQITDYFSYEHFYVIYCKFWELDTDHDLYISQADLSRYNDQASSSRIIERIFSGAVTRGKTIQKEGRMSYADFVWFLISEEDKRNPTSIEYWFRCMDVDGDGVLSMYELEYFYEEQCERMEAMGIEPLPFHDLLCQMLDLVKPAVDGKITLRDLKRCRMAHIFYDTFFNLEKYLDHEQRDPFAVQKDVENDGPEPSDWDRFAAEEYETLVAEESAQAQFQEGFEDYETDEPASPSEFGNKSNKILSASLPEKCGKLQSVDEE | –
7 | > 100000 nM | PR70 (130–504) (domain or fragment, human, UniProt Q9Y5P8 130-504, looked up, PR70 (B''β), regulatory B'' subunit of PP2A, human, product of PPP2R3B; residues 130–504; source: E. coli BL21(DE3), purified (IMAC, TEV cleavage, gel filtration); not shown: His tag, N-terminal, cleaved) FPRGRPQDSVNVDAVISKIESTFARFPHERATMDDMGLVAKACGCPLYWKGPLFYGAGGERTGSVSVHKFVAMWRKILQNCHDDAAKFVHLLMSPGCNYLVQEDFVPFLQDVVNTHPGLSFLKEASEFHSRYITTVIQRIFYAVNRSWSGRITCAELRRSSFLQNVALLEEEADINQLTEFFSYEHFYVIYCKFWELDTDHDLLIDADDLARHNDHALSTKMIDRIFSGAVTRGRKVQKEGKISYADFVWFLISEEDKKTPTSIEYWFRCMDLDGDGALSMFELEYFYEEQCRRLDSMAIEALPFQDCLCQMLDLVKPRTEGKITLQDLKRCKLANVFFDTFFNIEKYLDHEQKEQISLLRDGDSGGPELSDWEK | –

From publication PMC4090178, “Structural and Biochemical Characterization of Human PR70 in Isolation and in Complex with the Scaffolding Subunit of Protein Phosphatase 2A” (PLoS ONE, 2014)
